The supplement of paper PMC10126150
± gives the standard deviation of the averaged measurements.

Each sequence was assayed on ATP (assay: switch fluorescence ratio, 500 uM ATP over buffer (Cy3 cluster intensity, sum of 5 cycles each) (fold (ratio)); higher = stronger signal-on switching upon ATP binding; sequences stand for … in TCGTCGGCAGCGTCAGATGTGTATAAGAGACAGTTTTTTTTTTTTTTTTTTTTTTTTT…TC). Details: aptamer strand: ATP DNA aptamer (quencher-CACCTGGGGGAGTATTGCGGAGGAAGG + anchor), 100 nM annealed; ATP concentration: 500 uM.
In short: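 Per cluster, summed Cy3 intensity from the target cycles was divided by that from the buffer cycles to give the fluorescence ratio, then averaged per switch-domain sequence. Clusters outside 100-1000 RFU were excluded. The Cy3-labelled switching-strand clusters, on a modified Illumina MiSeq flow-cell, were annealed to 100 nM quencher-labelled ATP aptamer and imaged in selection buffer, then after 15 min with 500 uM ATP at 22 °C, for five cycles with NaOH stripping and re-annealing between them.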
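Also: ATP exposure 15 min at 22 °C before imaging.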

Point of comparison: TTTGTCCAGT, switch fluorescence ratio 0.991 ± 0.041. Against it:
- AACCGTTGGT — within error, 1.01 ± 0.014
- GATGAATGCT — within error, 0.9814 ± 0.0034
- AGCCAGCTGC — within error, 0.9924 ± 0.0095
- TAAAGGGTTG — within error, 1.02 ± 0.065
- TTTGGAAATG — within error, 1.0077 ± 0.00015
- CCGGGGGGAG — within error, 1.02 ± 0.045
- CAAATAGGCC — within error, 1.002 ± 0.0014
- TCTGACGTA — within error, 1.04 ± 0.0091
- GGGCCAGTAT — within error, 0.963 ± 0.017
- CCAGCTGGAG — within error, 0.997 ± 0.025
- GCGATGTCT — within error, 0.9976 ± 0.0065
- CGGATATGCG — within error, 1.06 ± 0.085
- CAGGGAGGGG — within error, 0.995 ± 0.032
- GTTAGAGGGG — within error, 1.01 ± 0.033
- ATTCTGGGGT — within error, 1.04 ± 0.07
- AGGAGCTTTC — higher, 1.08 ± 0.039
- CGTGGATGTG — within error, 0.9885 ± 0.0027
- ACAATAATAT — within error, 1 ± 0.028
- TTTGAAGGGA — within error, 0.996 ± 0.042
- GATTTTACTT — within error, 1.03 ± 0.015
- TTGTGAGGTT — within error, 1.06 ± 0.088
- ATATCAGGGC — within error, 0.961 ± 0.034
- GATAGGATTG — within error, 0.987 ± 0.022
- GACAGTAGTC — within error, 1.001 ± 0.0049
- AATCGTTGCT — within error, 0.952 ± 0.039
- AGATTGTACG — within error, 1.006 ± 0.0017
- TTGACTGGAA — within error, 1.02 ± 0.011
- AGGTAGGCGG — within error, 0.969 ± 0.055
- GGGTTGCTTA — within error, 0.99 ± 0.023
- CAGGGGGTGT — within error, 1.03 ± 0.032
- ATATCCTAGT — within error, 0.987 ± 0.029
- AGGATGGTAT — within error, 1.003 ± 0.01
- TGGGTGTCCA — within error, 1 ± 0.021
- AAGCGTAAAA — within error, 0.979 ± 0.024
- TTTTTCGTGG — within error, 1.01 ± 0.022
- CAGTTTTACA — higher, 1.05 ± 0.016
- CGGATAGAGG — within error, 0.964 ± 0.012
- AATATATACG — within error, 1.0252 ± 0.00079
- TTTTTTTAAA — within error, 0.999 ± 0.027
- AGGAAGTTGC — within error, 0.9883 ± 0.0085
- CATGGTAGAG — within error, 0.975 ± 0.034
- GTATGCGCAA — higher, 2.74 ± 0.06
- CCTAACAGTT — within error, 1.02 ± 0.0039
- ATCAGAATCC — within error, 1.04 ± 0.013
- AGAATAGGGG — within error, 0.9762 ± 0.0083
- TTTAAGAGAA — within error, 1.001 ± 0.0059
- AGGGCAATGT — higher, 1.11 ± 0.032
- GGCGAGGGGC — within error, 1.01 ± 0.036
- TGGGAGATAT — within error, 1 ± 0.028
- CGATGTCGAA — within error, 1.01 ± 0.011
- CGAGTCCGTT — within error, 0.99 ± 0.018
- CGTCTAAGGG — within error, 1.06 ± 0.13
- AATATGGCGT — within error, 1.01 ± 0.029
- GGTGACGCAC — higher, 1.62 ± 0.057
- ATGGCTATTC — within error, 0.979 ± 0.046
- TTGGGTGCGG — within error, 1 ± 0.066
- GGAGCGGTGG — within error, 0.955 ± 0.042
- AAAAAGTCGG — within error, 1.04 ± 0.029
- ACATGGGGTT — within error, 0.998 ± 0.03
- TGGTTTTGGT — within error, 0.987 ± 0.025
- CGGGGTGCGA — within error, 1.02 ± 0.021
- AGTATGTATA — within error, 0.9957 ± 0.0083
- TTTTTTTTAA — within error, 1.01 ± 0.045
- TTCGGGCCGA — within error, 0.998 ± 0.017
- GGAGTTCGTT — higher, 1.09 ± 0.052
- CTAATCGGTC — lower, 0.874 ± 0.029
- GGCACGATGG — within error, 1 ± 0.035
- AGTTGGGGAT — within error, 0.986 ± 0.04
- TAGGGGGCAC — within error, 1 ± 0.025
- CGAGCAGTGG — higher, 1.1 ± 0.034
- TGGCAAAATT — within error, 1.01 ± 0.033
- CAAGGATGTG — within error, 0.965 ± 0.041
- CAGGGCCATG — within error, 1.009 ± 0.0014
- CCGCAGAGCA — higher, 1.79 ± 0.043
- ATATTGACAC — higher, 1.08 ± 0.012
- ATCGGAGTTC — within error, 0.989 ± 0.047
- GGGTGTGAAC — within error, 0.9859 ± 0.0046
- TTGCTGGGCC — within error, 1.02 ± 0.088
- CGAAAGAAAT — within error, 1.02 ± 0.031
- CCAAAGGGTT — higher, 1.036 ± 0.0034
- AAGCAATTAT — higher, 1.53 ± 0.11
- TATCGGGGCT — within error, 0.981 ± 0.064
- TTTGTTTTCA — within error, 0.989 ± 0.034
- GTTTGTGGAC — within error, 0.997 ± 0.035
- GGTGTTCAGG — within error, 1.042 ± 0.0083
- AGAGGTTTTT — within error, 0.989 ± 0.019
- GGTGACAAAT — within error, 0.9777 ± 0.003
- GGGGACGATA — within error, 1 ± 0.053
- CTGTTTTGGG — within error, 1.03 ± 0.032
- GCTGTTAGAG — within error, 1.02 ± 0.022
- GTTATAAAGT — within error, 0.99 ± 0.024
- AAAAATTTTG — within error, 1.04 ± 0.056
- TTACAAGAAA — within error, 1.03 ± 0.041
- GGCGTCGAGG — within error, 0.997 ± 0.018
- TGAGTTTGCG — within error, 1.01 ± 0.075
- GACGTGACGA — higher, 1.15 ± 0.019
- CGGGGGAGTG — within error, 0.975 ± 0.025
- ATTTAATTGT — within error, 0.986 ± 0.053
- AGGAGCAGCG — lower, 0.919 ± 0.03
